Measurements taken from US12297272B2, “IgG Fc variants for veterinary use” (Elanco US Inc., priority 2017, dated 2025).

Columns and labels:
[1] = cited from earlier work
[2] = type: in vitro ADME, feline; settings: pH 7.2
Method: (§1) GLP1-G8_I_VARfeIgG2 (SEQ ID NO: 26) was stored in PBS, pH7.2 with feline serum at 37° C. for 24 hours to test in vitro serum stability.

[3] = In vivo pharmacokinetics in cats, serum concentration by cell-based activity assay; settings: single dose 2 mg/kg subcutaneous, 5 cats, 0 to 168 hours
[4] = in vivo, sc, 2 mg/kg
Method: (§2) The plate was sealed and incubated overnight at 4° C. […] After removing the blocking buffer, serial dilutions of reference standard and samples in blocking buffer were added (100 μl/well) and the plate was incubated for 2 hours at room temperature. […] TMB substrate (ScyTek, Catalog No. TM1999) was added (100 μl/well) and allowed to incubate at room temperature for 1 minute. The reaction was stopped by the addition of 2M H2SO4 (50 μl/well).

[5] = in vivo, sc, 2 mg/kg; remark: listed apart in the source
[6] = type: in vitro ADME, feline
Method: (lane 1), in PBS for 24 hours at 37° C. (lane 2), in PBS for 24 hours at 4° C. (lane 9). A mouse anti-GLP1 antibody was used.
as §1

[7] = biological target: T1, GLP1R (Homo sapiens, UniProt P43220); assay: Long-term storage stability, CHOK-1-GL1R cells with cAMP-Glo Max Assay; type: cell-based; settings: stored in PBS, pH7.2, 1.3 mg/mL, 2-8° C. for one year
T1 construct: host or cells: CHO-K1 (hamster ovarian cell line), CHOK-1-GL1R
Method: GLP1-G8_I_VARfeIgG2 (SEQ ID NO: 26) was stored in PBS, pH7.2 at a concentration of 1.3 mg/mL, placed in 1.5 mL Eppendorf tube, and stored at 2-8° C. for one year (Lot 2-29-2016). GLP1-G8_I_VARfeIgG2 (SEQ ID NO: 26) was also stored in PBS, pH7.2 at a concentration of 10 mg/mL, placed in 1.5 mL Eppendorf tube, and stored at 2-8° C. for one day (Lot 2-2-2017).
CHOK-1-GL1R cells were plated in a 96-well plate (Corning, Cat #3610) at a density of 20,000 cells per well in F-12K Medium (ATCC, Cat #ATCC® 30-2004) supplemented with 10% Fetal Bovine Serum, heat inactivated (Sigma, Cat #2868) and incubated at 37° C., 5% CO2 for 24 hours. […] (Sigma Aldrich, Cat. #B8279) to a final concentration 100 μL.
The cells were incubated at room temperature for 30 minutes. In this process, upon GLP1 binding to the Gs-coupled GLP1R receptor, Gs stimulates adenylate cyclase to generate cAMP. […]
Mono-oxygenation of luciferin was catalyzed by luciferase in the presence of Mg^2+ and ATP that presented in the cell lysate, resulting in a luminescent signal proportional to the amount of ATP in the cells. At the end of 10 min incubation, the plate was read on a Synergy HT microplate reader (Biotek, Winooski, VT). Luminescence is proportional to ATP levels but inversely proportional to cAMP levels. Thus, as cAMP concentration increases, luminescence decreases.

[8] = Differential scanning fluorimetry, stability at various pH; type: physicochemical; settings: n = 3, 10 μg construct
Description: Furthermore, differential scanning fluorimetry was used to assess the stability of the contiguous polypeptides at various pH, as reflected by mean melting point temperature (n=3) (Table 9, below). The increased stability of the variant feline IgG2 hinge is most evident at pH 6.

[9] = In vivo pharmacokinetics in cats, serum concentration by quantitative ELISA; settings: single dose 2 mg/kg subcutaneous, 5 cats
Method: as §2

T1 sequence (P43220 24-463): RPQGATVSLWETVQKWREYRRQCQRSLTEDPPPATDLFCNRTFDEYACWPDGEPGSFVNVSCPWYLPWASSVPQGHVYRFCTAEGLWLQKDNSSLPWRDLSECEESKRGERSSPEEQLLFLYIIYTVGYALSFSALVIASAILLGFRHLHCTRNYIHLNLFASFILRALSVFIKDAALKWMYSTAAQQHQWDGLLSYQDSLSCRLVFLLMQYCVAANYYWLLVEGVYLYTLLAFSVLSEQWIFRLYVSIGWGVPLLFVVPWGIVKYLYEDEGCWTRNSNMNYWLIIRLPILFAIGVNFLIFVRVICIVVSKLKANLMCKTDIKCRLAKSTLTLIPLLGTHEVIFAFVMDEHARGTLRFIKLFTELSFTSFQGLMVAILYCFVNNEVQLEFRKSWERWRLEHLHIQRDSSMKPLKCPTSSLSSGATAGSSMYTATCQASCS

Molecule	in vivo half-life [1]	activity after serum incubation [2]	mean AUC [3]	mean serum half-life (t1/2) [4]	mean t1/2 [5]	degradation by Western blot [6]	cellular activity after storage [7]	Mean Melting Point Temperature (Tm) ([8]; pH 5)	Mean Melting Point Temperature (Tm) ([8]; pH 6)	Mean Melting Point Temperature (Tm) ([8]; pH 7)	Mean Melting Point Temperature (Tm) ([8]; pH 8)	average Cmax [9]	average Tmax [9]	mean area under the curve (AUC) [9]
Native GLP1: Glucagon-like peptide-1 (GLP1), a potent antihyperglycemic hormone	approximately 2 minutes													
GLP1-G8_I_VARfeIgG2: Formula I GLP1-G8 contiguous polypeptide comprising variant feline IgG2 Fc of SEQ ID NO: 17 (Gly to Cys at position 14) (protein, Synthetic GLP1-G8_I_VARfeIgG2) HGEGTFTSDVSSYLEGQAAKEFIAWLVKGGGGSGGGGSGGGGSGGGGSPKTASTIESKTGECPKCPVPEIPGAPSVFIFPPKPKDTLSISRTPEVTCLVVDLGPDDSNVQITWFVDNTEMHTAKTRPREEQFNSTYRVVSVLPILHQDWLKGKEFKCKVNSKSLPSAMERTISKAKGQPHEPQVYVLPPTQEELSENKVSVTCLIKGFHPPDIAVEWEITGQPEPENNYQTTPPQLDSDGTYFLYSRLSVDRSHWQRGNTYTCSVSHEALHSHHTQKSLTQSPGK		activity was maintained	about 840 μg(h)/mL	39 h	36 h	no visible degradations were observed	maintained cellular activity	53.1 °C	59.7 °C	59.9 °C	58.2 °C	12000 ng/mL	22 h	about 950 m(h)/mL
